# Measured values from IntAct's records for PubMed 22430200.
# B1: E3 ubiquitin-protein ligase RNF31 (Homo sapiens), Q96EP0 (parent)
# chain: MPGEEEERAFLVAREELASALRRDSGQAFSLEQLRPLLASSLPLAARYLQLDAARLVRCNAHGEPRNYLNTLSTALNILEKYGRNLLSPQRPRYWRGVKFNNPVFRSTVDAVQGGRDVLRLYGYTEEQPDGLSFPEGQEEPDEHQVATVTLEVLLLRTELSLLLQNTHPRQQALEQLLEDKVEDDMLQLSEFDPLLREIAPGPLTTPSVPGSTPGPCFLCGSAPGTLHCPSCKQALCPACDHLFHGHPSRAHHLRQTLPGVLQGTHLSPSLPASAQPRPQSTSLLALGDSSLSSPNPASAHLPWHCAACAMLNEPWAVLCVACDRPRGCKGLGLGTEGPQGTGGLEPDLARGRWACQSCTFENEAAAVLCSICERPRLAQPPSLVVDSRDAGICLQPLQQGDALLASAQSQVWYCIHCTFCNSSPGWVCVMCNRTSSPIPAQHAPRPYASSLEKGPPKPGPPRRLSAPLPSSCGDPEKQRQDKMREEGLQLVSMIREGEAAGACPEEIFSALQYSGTEVPLQWLRSELPYVLEMVAELAGQQDPGLGAFSCQEARRAWLDRHGNLDEAVEECVRTRRRKVQELQSLGFGPEEGSLQALFQHGGDVSRALTELQRQRLEPFRQRLWDSGPEPTPSWDGPDKQSLVRRLLAVYALPSWGRAELALSLLQETPRNYELGDVVEAVRHSQDRAFLRRLLAQECAVCGWALPHNRMQALTSCECTICPDCFRQHFTIALKEKHITDMVCPACGRPDLTDDTQLLSYFSTLDIQLRESLEPDAYALFHKKLTEGVLMRDPKFLWCAQCSFGFIYEREQLEATCPQCHQTFCVRCKRQWEEQHRGRSCEDFQNWKRMNDPEYQAQGLAMYLQENGIDCPKCKFSYALARGGCMHFHCTQCRHQFCSGCYNAFYAKNKCPEPNCRVKKSLHGHHPRDCLFYLRDWTALRLQKLLQDNNVMFNTEPPAGARAVPGGGCRVIEQKEVPNGLRDEACGKETPAGYAGLCQAHYKEYLVSLINAHSLDPATLYEVEELETATERYLHVRPQPLAGEDPPAYQARLLQKLTEEVPLGQSIPRRRK
# Variants of: B1
# Details: with hoil1_human RBCK1, Q9BYM8
# Chain of hoil1_human RBCK1, Q9BYM8 (Q9BYM8 whole entry): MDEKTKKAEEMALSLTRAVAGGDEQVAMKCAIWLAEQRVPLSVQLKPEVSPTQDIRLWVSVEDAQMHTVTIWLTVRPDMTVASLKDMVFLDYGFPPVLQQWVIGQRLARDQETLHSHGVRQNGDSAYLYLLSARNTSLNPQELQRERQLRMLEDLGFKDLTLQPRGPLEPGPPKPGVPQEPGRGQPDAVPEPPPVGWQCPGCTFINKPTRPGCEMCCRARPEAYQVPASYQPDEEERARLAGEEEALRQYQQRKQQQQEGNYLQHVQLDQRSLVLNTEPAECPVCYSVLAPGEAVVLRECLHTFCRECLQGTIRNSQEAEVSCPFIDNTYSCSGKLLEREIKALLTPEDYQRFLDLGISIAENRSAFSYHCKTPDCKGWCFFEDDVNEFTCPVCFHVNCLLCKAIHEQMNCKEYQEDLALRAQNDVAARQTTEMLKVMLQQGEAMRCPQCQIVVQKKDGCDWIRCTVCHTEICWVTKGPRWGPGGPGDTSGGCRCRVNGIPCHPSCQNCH
row,effect of a mutation on the interaction,Variant
1,disrupting interaction,R623A

# Variants of: B1
# Details: with hoil1_human RBCK1, Q9BYM8
# Remark: another data set of the same source
row,effect of a mutation on the interaction,Variant
1,disrupting interaction,F620A

# Variants of: B1
# Details: with hoil1_human RBCK1, Q9BYM8
# Remark: another data set of the same source
row,effect of a mutation on the interaction,Variant
1,decreasing interaction,F620A

# Variants of: B1
# Details: with hoil1_human RBCK1, Q9BYM8
# Remark: another data set of the same source
row,effect of a mutation on the interaction,Variant
1,disrupting interaction,Q613A

# Variants of: B1
# Details: with hoil1_human RBCK1, Q9BYM8
# Remark: another data set of the same source
row,effect of a mutation on the interaction,Variant
1,decreasing interaction,Q613A
2,decreasing interaction,L617A

# Variants of: B1
# Details: with hoil1_human RBCK1, Q9BYM8
# Remark: another data set of the same source
row,effect of a mutation on the interaction,Variant
1,disrupting interaction,L617A
